Test results from article PMC3708871.

T1: Recombinant SIVmac239 Nef core domain, residues 96–237
T1 chain: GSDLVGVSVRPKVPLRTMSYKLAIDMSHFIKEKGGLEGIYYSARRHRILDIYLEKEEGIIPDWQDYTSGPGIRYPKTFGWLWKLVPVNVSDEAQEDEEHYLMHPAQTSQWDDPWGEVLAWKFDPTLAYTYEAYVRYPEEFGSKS


Molecular target: T1, Recombinant SIVmac239 Nef core domain, …
Experiment: SPR
Details: chain shown with the change; Nef96–237 at about 650 µM (highest concentration point), peptide on chip; parent: est. 1900; read off a plot

Molecule	response [RU]
MAPILYDYRKMPMAAAAAEDGDKRCK	1100

Same assay, conditions: chain shown with the change; Nef96–237 at about 650 µM (highest concentration point), peptide on chip; read off a plot

Molecule	response [RU]
MASTSYDYSRVPMDDIWKEDGDKRCK	800

Molecular target: Rhesus macaque tetherin (BST-2), allele rBST-2.1
Experiment: co-immunoprecipitation
Details: 293T cells co-transfected; lysates immunoprecipitated with a monoclonal antibody to tetherin; parent: 1

Molecule	ratio to parent
SIVmac239 Nef, wild type M66A; N67A; T68A; P69A; W70A; R71A	0.05
SIVmac239 Nef, wild type M66A; N67A; T68A; P69A; W70A; R71A; I117A; L174A; W175A; N181A; V182A	0.07

Molecular target: SIVmac239 Nef, wild type
Experiment: co-immunoprecipitation
Details: IP: α-BST2; parent: 0.13

Molecule	other: Nef/BST2 band intensity ratio
Human tetherin (BST-2) (from UniProt Q10589) insertion of D14DIWK18 from rhesus tetherin into human tetherin (hDDIWK)	0.65

Molecular target: Dynamin 2 fused to GFP (UniProt P50570)
Experiment: co-IP; 293T co-transfected with Nef constructs and Dyn2-GFP; lysates immunoprecipitated with a mAb to GFP, blots for Nef and GFP; band ratios
Details: not given

UniProt P50570, sequence (P50570 whole entry, the tested form may be a part): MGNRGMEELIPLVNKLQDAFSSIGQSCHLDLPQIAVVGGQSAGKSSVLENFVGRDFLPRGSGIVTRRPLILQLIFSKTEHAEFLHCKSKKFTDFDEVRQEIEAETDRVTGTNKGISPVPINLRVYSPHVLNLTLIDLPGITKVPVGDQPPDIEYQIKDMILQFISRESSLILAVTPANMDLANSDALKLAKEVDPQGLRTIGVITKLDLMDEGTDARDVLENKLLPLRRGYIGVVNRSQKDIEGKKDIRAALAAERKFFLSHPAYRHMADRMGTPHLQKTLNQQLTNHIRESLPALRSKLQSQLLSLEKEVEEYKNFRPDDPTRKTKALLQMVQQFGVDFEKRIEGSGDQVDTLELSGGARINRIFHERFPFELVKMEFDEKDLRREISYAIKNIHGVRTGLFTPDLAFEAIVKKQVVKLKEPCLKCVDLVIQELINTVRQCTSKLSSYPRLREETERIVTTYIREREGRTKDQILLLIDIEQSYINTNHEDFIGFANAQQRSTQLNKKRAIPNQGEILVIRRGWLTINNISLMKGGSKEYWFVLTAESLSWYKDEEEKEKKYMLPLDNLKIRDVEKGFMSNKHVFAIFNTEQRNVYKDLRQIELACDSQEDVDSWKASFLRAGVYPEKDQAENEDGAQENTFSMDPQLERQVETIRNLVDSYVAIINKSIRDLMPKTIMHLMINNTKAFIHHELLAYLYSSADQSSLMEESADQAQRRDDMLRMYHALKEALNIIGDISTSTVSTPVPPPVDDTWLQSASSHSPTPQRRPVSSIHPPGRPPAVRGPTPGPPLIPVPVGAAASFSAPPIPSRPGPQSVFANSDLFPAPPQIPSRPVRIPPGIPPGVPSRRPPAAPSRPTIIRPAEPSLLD

Molecule	Dyn2 binding (Nef/dynamin 2 band intensity in IP)
SIVmac239 Nef, wild type (natural protein)	1.1

Molecular target: Rhesus macaque tetherin (BST-2), allele rBST-2.1 (rhesus macaque)
Experiment: co-IP; 293T co-transfected with Nef and tetherin constructs; lysates immunoprecipitated with anti-tetherin mAb 3H4 and protein A beads, blots for Nef and tetherin; band densities by ImageJ
Details: not given

Molecule	BST2 binding (Nef/tetherin band intensity in IP)
SIVmac239 Nef with pair-wise alanine substitutions at positions 130–131 (natural protein)	2.4
SIVmac239 Nef with pair-wise alanine substitutions at positions 82–83 (natural protein)	1.38
SIVmac239 Nef with pair-wise alanine substitutions at positions 88–89 (natural protein)	0.93
SIVmac239 Nef with pair-wise alanine substitutions at positions 164–165 (natural protein)	1.34
SIVmac239 Nef with pair-wise alanine substitutions at positions 170–171 (natural protein)	2.61
SIVmac239 Nef with pair-wise alanine substitutions at positions 5–6 (natural protein)	0.18
SIVmac239 Nef with pair-wise alanine substitutions at positions 205–206 (natural protein)	0.94
SIVmac239 Nef with pair-wise alanine substitutions at positions 68–69 (natural protein)	0.14
SIVmac239 Nef G2A (myristoylation site mutant) (natural protein)	0.16
SIVmac239 Nef with pair-wise alanine substitutions at positions 158–159 (natural protein)	0.76
SIVmac239 Nef with pair-wise alanine substitutions at positions 66–67 (natural protein)	0.18
SIVmac239 Nef with pair-wise alanine substitutions at positions 60–61 (natural protein)	0.7
SIVmac239 Nef with pair-wise alanine substitutions at positions 132–133 (natural protein)	0.79
SIVmac239 Nef with pair-wise alanine substitutions at positions 108–109 (natural protein)	1.87
SIVmac239 Nef with pair-wise alanine substitutions at positions 152–153 (natural protein)	1.68
SIVmac239 Nef with pair-wise alanine substitutions at positions 209–210 (natural protein)	1.4
SIVmac239 Nef with pair-wise alanine substitutions at positions 110–111 (natural protein)	1.29
SIVmac239 Nef with pair-wise alanine substitutions at positions 199–200 (natural protein)	0.43
SIVmac239 Nef with pair-wise alanine substitutions at positions 64–65 (natural protein)	0.54
SIVmac239 Nef with pair-wise alanine substitutions at positions 160–161 (natural protein)	1.64
SIVmac239 Nef with pair-wise alanine substitutions at positions 70–71 (natural protein)	0.28
SIVmac239 Nef with pair-wise alanine substitutions at positions 74–75 (natural protein)	0.71

Molecule	BST2 binding (Nef/tetherin band intensity in IP)
SIVmac239 Nef with pair-wise alanine substitutions at positions 176–177 (natural protein)	3.17
SIVmac239 Nef with pair-wise alanine substitutions at positions 168–169 (natural protein)	2.1
SIVmac239 Nef, wild type (natural protein)	1
SIVmac239 Nef with pair-wise alanine substitutions at positions 138–139 (natural protein)	0.84
SIVmac239 Nef with pair-wise alanine substitutions at positions 140–141 (natural protein)	1.38
SIVmac239 Nef with pair-wise alanine substitutions at positions 193–194 (natural protein)	0.22
SIVmac239 Nef with pair-wise alanine substitutions at positions 128–129 (natural protein)	1.11
SIVmac239 Nef with pair-wise alanine substitutions at positions 181–182 (natural protein)	0.23
SIVmac239 Nef with pair-wise alanine substitutions at positions 86–87 (natural protein)	0.47
SIVmac239 Nef with pair-wise alanine substitutions at positions 195–196 (natural protein)	0.31
SIVmac239 Nef with pair-wise alanine substitutions at positions 166–167 (natural protein)	1.4
SIVmac239 Nef with pair-wise alanine substitutions at positions 112–113 (natural protein)	0.35
SIVmac239 Nef with pair-wise alanine substitutions at positions 146–147 (natural protein)	1.56
SIVmac239 Nef with pair-wise alanine substitutions at positions 134–135 (natural protein)	2.58
SIVmac239 Nef with pair-wise alanine substitutions at positions 116–117 (natural protein)	0.16
SIVmac239 Nef with pair-wise alanine substitutions at positions 156–157 (natural protein)	1.46
SIVmac239 Nef with pair-wise alanine substitutions at positions 142–143 (natural protein)	5.1
SIVmac239 Nef with pair-wise alanine substitutions at positions 172–173 (natural protein)	1.34
SIVmac239 Nef with pair-wise alanine substitutions at positions 203–204 (natural protein)	0.74
SIVmac239 Nef with pair-wise alanine substitutions at positions 174–175 (natural protein)	0.52
SIVmac239 Nef with pair-wise alanine substitutions at positions 106–107 (natural protein)	0.82

Molecular target: Peptide of the cytoplasmic domain of rhesus macaque tetherin, residues 1–26, biotinylated (rhesus macaque)
Experiment: SPR; BIAcore 3000, 25°C, PBS with 5 mM DTT; biotinylated tetherin peptides captured (3,000 RU) on neutravidin-coated CM5 chip, Nef proteins flowed at 5 µl/min; equilibrium analysis, apparent Kd
Details: not given

Molecule	Kd [µM]
Recombinant SIVmac239 Nef core domain, residues 96–237 (domain or fragment)	401
